Reference: paper PMC10128069, “A Fijivirus Major Viroplasm Protein Shows RNA-Stimulated ATPase Activity by Adopting Pentameric and Hexameric Assemblies of Dimers” (mBio, 2023)

How the values were obtained:
[1] = target: P9-1 (Mal de Rio Cuarto virus (MRCV)) (UniProt D9U542); assay: competition EMSA; conditions: 10 mM Tris-HCl, 50 mM KCl, 0.5 mM EDTA, 10% glycerol, 1 mM DTT, pH 7.5; 30 min at room temperature; 6.5% native PAGE at 4 C
P9-1 = P9-1 (Mal de Rio Cuarto virus (MRCV), UniProt D9U542 1-337); assay: EMSA; 5 uM probe; concentration-dependent, 1, 3, 6 uM protein; 10 mM Tris-HCl, 50 mM KCl, 0.5 mM EDTA, 10% glycerol, 1 mM DTT, pH 7.5; 30 min at room temperature; 6.5% native PAGE at 4 C; conditions: protein: recombinant; tags: N-terminal 52-residue tag (6xHis/Xpress/EK); label: 5'-HEX; single strand
SAXS = target: the molecule itself; assay: SAXS
cryo-EM structure = target: the molecule itself; assay: cryo-EM structure
SEC-MALS = target: the molecule itself; assay: SEC-MALS
crystal structure = target: the molecule itself; assay: crystal structure

poly(A), average 250 nt was tested, and the binding signal (fold decrease of ssDNA complex) [1] was 10.

B1: 22-nt HEX-ssDNA probe (ssDNA)
DNA: GACCTCGCTCTCTGTTTCTCAT
B1: binds (P9-1).

B2: P9-1 major viroplasm protein of mal de Río Cuarto virus (MRCV), full-length, expressed in E. coli from pRSET (natural protein)
chain: MADLERRTFGSYKIEEITIKNDQQQKTTNQQQISNNEQRISTKKIPILDDGIFDLINYLLNGTHFDKTHYCGFDYSHLPTLERDFNTASNYVSENYSIIVEEIDLNKYERSESISLKSPDFTVVLEYFKKHVEGQTEQEENKTESTSSELPAKIVRELPLLPIMCRESEDSISEDILEGEGAVIQVLKMFMKGFLVHLGENPNSYDRQLTIEKYRPLLISIIGYEFTVGTRATHTKINHIYYQLATFDNYPFDLLRFQLQSLIDTPNVIKERIEKDGLFKVITTTNARGQYQSVLLRGINGSESYLNLKRYRKFKVRVVGNVDNVIKNDFSSLKLDV
notes: source: E. coli BL21, purified (IMAC on Ni-NTA, SEC on Superdex 200); copies: 10 or 12
B2 was tested, and the “stoichiometry N” value (SAXS) was 10, the “stoichiometry N” value (cryo-EM structure) was 12 and the “stoichiometry N” value (SEC-MALS) was ~10.4 protomers.

B3: P9-1ΔC-arm (residues 1 to 313 of MRCV P9-1, lacking the 24 C-terminal residues) (domain or fragment)
chain: MADLERRTFGSYKIEEITIKNDQQQKTTNQQQISNNEQRISTKKIPILDDGIFDLINYLLNGTHFDKTHYCGFDYSHLPTLERDFNTASNYVSENYSIIVEEIDLNKYERSESISLKSPDFTVVLEYFKKHVEGQTEQEENKTESTSSELPAKIVRELPLLPIMCRESEDSISEDILEGEGAVIQVLKMFMKGFLVHLGENPNSYDRQLTIEKYRPLLISIIGYEFTVGTRATHTKINHIYYQLATFDNYPFDLLRFQLQSLIDTPNVIKERIEKDGLFKVITTTNARGQYQSVLLRGINGSESYLNLKRYRK
notes: source: E. coli BL21, purified (IMAC on Ni-NTA, SEC on Superdex 200); not shown: His6, N-terminal, kept
B3 was tested, and the “stoichiometry N” value (SEC-MALS) was ~2.3 protomers and the “stoichiometry N” value (crystal structure) was 2.
